Measurements taken from the Human Domainome abundance scans (Beltran et al. 2025).
± gives the uncertainty stated by the source.

Assay: abundance fitness (aPCA) (normalised: wild type 0, dead -1); higher = more abundant; growth selection in yeast, the domain comes from the species named
Conditions: Homo sapiens

**Q.** With “Scaffold attachment factor B2 K44L, Q14151” as the substance, how does the abundance fitness read?
**A.** Its abundance fitness is -0.256 ± 0.11.

**Q.** Which abundance fitness does the source give for “Scaffold attachment factor B2 K44M, Q14151” here?
**A.** Its abundance fitness is -0.379 ± 0.14.

**Q.** For “Scaffold attachment factor B2 K44N, Q14151”, which abundance fitness is on record?
**A.** The abundance fitness was -0.27 ± 0.13.

**Q.** Which abundance fitness does the source give for “Scaffold attachment factor B2 K44P, Q14151” here?
**A.** The abundance fitness was -0.509 ± 0.088.

**Q.** With “Scaffold attachment factor B2 K44Q, Q14151” as the substance, how does the abundance fitness read?
**A.** The abundance fitness was -0.1 ± 0.18.

**Q.** Which abundance fitness does the source give for “Scaffold attachment factor B2 K44R, Q14151” here?
**A.** The abundance fitness was -0.06 ± 0.071.

**Q.** For “Scaffold attachment factor B2 K44S, Q14151”, which abundance fitness is on record?
**A.** The abundance fitness was -0.183 ± 0.083.

**Q.** Which abundance fitness does the source give for “Scaffold attachment factor B2 K44T, Q14151” here?
**A.** Its abundance fitness is -0.347 ± 0.1.

**Q.** For “Scaffold attachment factor B2 K44V, Q14151”, which abundance fitness is on record?
**A.** The abundance fitness was -0.221 ± 0.084.

**Q.** Which abundance fitness does the source give for “Scaffold attachment factor B2 K44W, Q14151” here?
**A.** The abundance fitness was -0.508 ± 0.081.

**Q.** With “Scaffold attachment factor B2 K44Y, Q14151” as the substance, how does the abundance fitness read?
**A.** Its abundance fitness is -0.494 ± 0.15.

**Q.** With “Scaffold attachment factor B2 K53A, Q14151” as the substance, how does the abundance fitness read?
**A.** Its abundance fitness is -0.516 ± 0.08.

**Q.** For “Scaffold attachment factor B2 K53C, Q14151”, which abundance fitness is on record?
**A.** Its abundance fitness is -0.368 ± 0.081.

**Q.** Which abundance fitness does the source give for “Scaffold attachment factor B2 K53D, Q14151” here?
**A.** Its abundance fitness is -0.716 ± 0.22.

**Q.** For “Scaffold attachment factor B2 K53E, Q14151”, which abundance fitness is on record?
**A.** The abundance fitness was -0.136 ± 0.091.

**Q.** For “Scaffold attachment factor B2 K53F, Q14151”, which abundance fitness is on record?
**A.** Its abundance fitness is -0.445 ± 0.13.

**Q.** Which abundance fitness does the source give for “Scaffold attachment factor B2 K53G, Q14151” here?
**A.** The abundance fitness was -0.473 ± 0.076.

**Q.** Which abundance fitness does the source give for “Scaffold attachment factor B2 K53L, Q14151” here?
**A.** The abundance fitness was -0.326 ± 0.078.

**Q.** With “Scaffold attachment factor B2 K53M, Q14151” as the substance, how does the abundance fitness read?
**A.** The abundance fitness was -0.338 ± 0.11.

**Q.** For “Scaffold attachment factor B2 K53N, Q14151”, which abundance fitness is on record?
**A.** Its abundance fitness is -0.463 ± 0.14.

**Q.** For “Scaffold attachment factor B2 K53P, Q14151”, which abundance fitness is on record?
**A.** The abundance fitness was -0.204 ± 0.099.

**Q.** Which abundance fitness does the source give for “Scaffold attachment factor B2 K53Q, Q14151” here?
**A.** The abundance fitness was -0.274 ± 0.12.

**Q.** For “Scaffold attachment factor B2 K53R, Q14151”, which abundance fitness is on record?
**A.** Its abundance fitness is -0.047 ± 0.085.

**Q.** With “Scaffold attachment factor B2 K53T, Q14151” as the substance, how does the abundance fitness read?
**A.** The abundance fitness was -0.352 ± 0.11.

**Q.** With “Scaffold attachment factor B2 K53V, Q14151” as the substance, how does the abundance fitness read?
**A.** Its abundance fitness is -0.577 ± 0.083.

**Q.** With “Scaffold attachment factor B2 K53W, Q14151” as the substance, how does the abundance fitness read?
**A.** Its abundance fitness is -0.39 ± 0.11.

**Q.** Which abundance fitness does the source give for “Scaffold attachment factor B2 K53Y, Q14151” here?
**A.** The abundance fitness was -0.054 ± 0.43.

**Q.** For “Scaffold attachment factor B2 K61A, Q14151”, which abundance fitness is on record?
**A.** Its abundance fitness is 0.022 ± 0.084.

**Q.** With “Scaffold attachment factor B2 K61C, Q14151” as the substance, how does the abundance fitness read?
**A.** Its abundance fitness is -0.303 ± 0.15.

**Q.** With “Scaffold attachment factor B2 K61D, Q14151” as the substance, how does the abundance fitness read?
**A.** Its abundance fitness is -0.082 ± 0.17.

**Q.** For “Scaffold attachment factor B2 K61G, Q14151”, which abundance fitness is on record?
**A.** The abundance fitness was -0.015 ± 0.1.

**Q.** Which abundance fitness does the source give for “Scaffold attachment factor B2 K61H, Q14151” here?
**A.** Its abundance fitness is -0.128 ± 0.11.

**Q.** Which abundance fitness does the source give for “Scaffold attachment factor B2 K61L, Q14151” here?
**A.** The abundance fitness was -0.282 ± 0.083.

**Q.** With “Scaffold attachment factor B2 K61M, Q14151” as the substance, how does the abundance fitness read?
**A.** Its abundance fitness is -0.186 ± 0.11.

**Q.** Which abundance fitness does the source give for “Scaffold attachment factor B2 K61N, Q14151” here?
**A.** The abundance fitness was -0.002 ± 0.095.

**Q.** With “Scaffold attachment factor B2 K61P, Q14151” as the substance, how does the abundance fitness read?
**A.** The abundance fitness was -0.203 ± 0.13.

**Q.** Which abundance fitness does the source give for “Scaffold attachment factor B2 K61Q, Q14151” here?
**A.** The abundance fitness was -0.072 ± 0.096.

**Q.** Which abundance fitness does the source give for “Scaffold attachment factor B2 K61R, Q14151” here?
**A.** The abundance fitness was -0.184 ± 0.095.

**Q.** Which abundance fitness does the source give for “Scaffold attachment factor B2 K61S, Q14151” here?
**A.** Its abundance fitness is -0.359 ± 0.091.

**Q.** For “Scaffold attachment factor B2 K61T, Q14151”, which abundance fitness is on record?
**A.** Its abundance fitness is -0.22 ± 0.17.

**Q.** Which abundance fitness does the source give for “Scaffold attachment factor B2 K61V, Q14151” here?
**A.** The abundance fitness was -0.094 ± 0.095.

**Q.** For “Scaffold attachment factor B2 K61W, Q14151”, which abundance fitness is on record?
**A.** Its abundance fitness is -0.357 ± 0.1.

**Q.** Which abundance fitness does the source give for “Scaffold attachment factor B2 K61Y, Q14151” here?
**A.** The abundance fitness was -0.792 ± 0.32.

**Q.** For “Scaffold attachment factor B2 K62C, Q14151”, which abundance fitness is on record?
**A.** The abundance fitness was -0.303 ± 0.12.

**Q.** With “Scaffold attachment factor B2 K62D, Q14151” as the substance, how does the abundance fitness read?
**A.** Its abundance fitness is -0.123 ± 0.13.

**Q.** For “Scaffold attachment factor B2 K62E, Q14151”, which abundance fitness is on record?
**A.** The abundance fitness was -0.002 ± 0.1.

**Q.** Which abundance fitness does the source give for “Scaffold attachment factor B2 K62F, Q14151” here?
**A.** The abundance fitness was -0.385 ± 0.1.

**Q.** Which abundance fitness does the source give for “Scaffold attachment factor B2 K62G, Q14151” here?
**A.** The abundance fitness was -0.115 ± 0.07.

**Q.** With “Scaffold attachment factor B2 K62H, Q14151” as the substance, how does the abundance fitness read?
**A.** The abundance fitness was -0.083 ± 0.15.

**Q.** With “Scaffold attachment factor B2 K62L, Q14151” as the substance, how does the abundance fitness read?
**A.** Its abundance fitness is -0.212 ± 0.11.

**Q.** Which abundance fitness does the source give for “Scaffold attachment factor B2 K62M, Q14151” here?
**A.** Its abundance fitness is -0.288 ± 0.19.

**Q.** With “Scaffold attachment factor B2 K62N, Q14151” as the substance, how does the abundance fitness read?
**A.** Its abundance fitness is -0.246 ± 0.14.

**Q.** Which abundance fitness does the source give for “Scaffold attachment factor B2 K62P, Q14151” here?
**A.** Its abundance fitness is -0.407 ± 0.2.

**Q.** With “Scaffold attachment factor B2 K62Q, Q14151” as the substance, how does the abundance fitness read?
**A.** The abundance fitness was -0.125 ± 0.13.

**Q.** With “Scaffold attachment factor B2 K62R, Q14151” as the substance, how does the abundance fitness read?
**A.** Its abundance fitness is -0.075 ± 0.078.

**Q.** For “Scaffold attachment factor B2 K62S, Q14151”, which abundance fitness is on record?
**A.** The abundance fitness was -0.125 ± 0.095.

**Q.** With “Scaffold attachment factor B2 K62V, Q14151” as the substance, how does the abundance fitness read?
**A.** The abundance fitness was -0.163 ± 0.1.

**Q.** With “Scaffold attachment factor B2 K62W, Q14151” as the substance, how does the abundance fitness read?
**A.** The abundance fitness was -0.375 ± 0.12.

**Q.** For “Scaffold attachment factor B2 K62Y, Q14151”, which abundance fitness is on record?
**A.** The abundance fitness was -0.447 ± 0.37.

**Q.** For “Scaffold attachment factor B2 K65A, Q14151”, which abundance fitness is on record?
**A.** Its abundance fitness is -0.138 ± 0.12.

**Q.** With “Scaffold attachment factor B2 K65C, Q14151” as the substance, how does the abundance fitness read?
**A.** The abundance fitness was -0.145 ± 0.12.

**Q.** For “Scaffold attachment factor B2 K65D, Q14151”, which abundance fitness is on record?
**A.** Its abundance fitness is 0.036 ± 0.14.

**Q.** Which abundance fitness does the source give for “Scaffold attachment factor B2 K65F, Q14151” here?
**A.** The abundance fitness was -0.396 ± 0.22.

**Q.** For “Scaffold attachment factor B2 K65H, Q14151”, which abundance fitness is on record?
**A.** Its abundance fitness is 0.463 ± 0.23.

**Q.** For “Scaffold attachment factor B2 K65I, Q14151”, which abundance fitness is on record?
**A.** The abundance fitness was -0.241 ± 0.14.

**Q.** Which abundance fitness does the source give for “Scaffold attachment factor B2 K65L, Q14151” here?
**A.** The abundance fitness was -0.205 ± 0.1.

**Q.** Which abundance fitness does the source give for “Scaffold attachment factor B2 K65M, Q14151” here?
**A.** Its abundance fitness is -0.181 ± 0.11.

**Q.** For “Scaffold attachment factor B2 K65N, Q14151”, which abundance fitness is on record?
**A.** The abundance fitness was -0.148 ± 0.37.

**Q.** Which abundance fitness does the source give for “Scaffold attachment factor B2 K65P, Q14151” here?
**A.** The abundance fitness was -0.054 ± 0.18.

**Q.** With “Scaffold attachment factor B2 K65Q, Q14151” as the substance, how does the abundance fitness read?
**A.** The abundance fitness was -0.309 ± 0.28.

**Q.** With “Scaffold attachment factor B2 K65R, Q14151” as the substance, how does the abundance fitness read?
**A.** Its abundance fitness is -0.136 ± 0.099.

**Q.** Which abundance fitness does the source give for “Scaffold attachment factor B2 K65T, Q14151” here?
**A.** Its abundance fitness is 0.044 ± 0.17.

**Q.** With “Scaffold attachment factor B2 K65V, Q14151” as the substance, how does the abundance fitness read?
**A.** Its abundance fitness is -0.111 ± 0.086.

**Q.** For “Scaffold attachment factor B2 K65W, Q14151”, which abundance fitness is on record?
**A.** Its abundance fitness is -0.269 ± 0.12.

**Q.** With “Scaffold attachment factor B2 K65Y, Q14151” as the substance, how does the abundance fitness read?
**A.** Its abundance fitness is -0.35 ± 0.16.

**Q.** With “Scaffold attachment factor B2 L30A, Q14151” as the substance, how does the abundance fitness read?
**A.** Its abundance fitness is -0.28 ± 0.099.

**Q.** For “Scaffold attachment factor B2 L30C, Q14151”, which abundance fitness is on record?
**A.** The abundance fitness was -0.708 ± 0.094.

**Q.** With “Scaffold attachment factor B2 L30D, Q14151” as the substance, how does the abundance fitness read?
**A.** Its abundance fitness is -0.086 ± 0.15.

**Q.** With “Scaffold attachment factor B2 L30E, Q14151” as the substance, how does the abundance fitness read?
**A.** The abundance fitness was -0.232 ± 0.094.
